This is an account of results in patent US11111295B2, “Antibody for anti-claudin 18A2 and use thereof” (CAFA THERAPEUTICS LIMITED, priority 2016, dated 2021).

Test [1] deals with T1, human CLD18A2 (Homo sapiens, UniProt P56856).
T1 construct: expressed in transfected cells
T1 sequence (P56856 1-261 isoform P56856-2): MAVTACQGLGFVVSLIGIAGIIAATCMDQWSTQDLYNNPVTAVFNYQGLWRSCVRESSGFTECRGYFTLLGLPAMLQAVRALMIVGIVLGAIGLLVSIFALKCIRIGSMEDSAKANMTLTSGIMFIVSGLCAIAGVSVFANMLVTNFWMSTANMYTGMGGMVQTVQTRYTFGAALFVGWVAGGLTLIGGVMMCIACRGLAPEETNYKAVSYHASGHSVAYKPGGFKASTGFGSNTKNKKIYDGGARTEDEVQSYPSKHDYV
As to the kind of experiment: Flow cytometry binding of hybridoma supernatants to HEK293 cells stably transfected with human CLD18A2. To be noted: hybridoma supernatant; most of subclones after two rounds of subcloning; HEK293 transfectants. An excerpt:
Individual cells were screened for anti-CLD18A2 monoclonal antibody by flow cytometry, and HEK293 cells (HEK-CLD18A2) stably expressing human CLD18A2 were used for primary screening by flow cytometry using a Guava easyCyte™ HT System instrument. The binding of the antibody to human CLD18A1 and CLD18A2 transformants was then compared by flow cytometry. The instrument used was the Guava easyCyte™ HT System.
After multiple rounds of preparation and screening of hybridomas, the inventors found several antibodies with relatively ideal binding properties.
For orientation: In flow cytometry, cells or beads pass a laser one at a time.

Test [2] deals with T1, human CLD18A2. As to the kind of experiment: Flow cytometry binding of scFv_Fc fusion antibody to HEK293 cells stably transfected with human CLD18A2 (EC50). To be noted: scFv fused to human IgG1 Fc portion, read-out: relative binding affinity EC50 value. On the procedure:
Binding of anti-Claudin 18A2 scFv_Fc fusion antibody to HEK293 cells stably transfected with CLD18A2 was determined by flow cytometry. Experimental data was analyzed using GraphPad Prism and Guava easyCyte™ HT System instrument as described in Example 1 to obtain EC50 value.
Expression vectors of ScFv Fc-form of the two mutants were constructed as described in Example 2, and according to the procedure of Example 2, and the experimental data was analyzed using GraphPad Prism and Guava easyCyte™ HT System instrument to obtain EC50.
The binding activity assay was performed as described in Example 2, and experimental data was analyzed using HEK293 cells (HEK-CLD18A2) stably expressing human CLD18A2, GraphPad Prism and Guava easyCyte™ HT System instrument to obtain EC50, and the results are shown in FIG. 5.
(5) The binding activity was tested, and experimental data was analyzed using HEK293 cells (HEK-CLD18A2) stably expressing human CLD18A2, GraphPad Prism and Guava easyCyte™ HT System instrument, and the results are shown in FIG. 6.
The mutant hu8E5-2I of the humanized antibody hu8E5 was constructed as described in Example 3. Experimental data was analyzed using HEK293 cells (HEK-CLD18A2) stably expressing human CLD18A2, GraphPad Prism and Guava easyCyte™ HT System instrument, and the results are shown in FIG. 7.

B1: 3E12: murine anti-CLD18A2 monoclonal antibody, VH SEQ ID NO:7, VL SEQ ID NO:5 (antibody, V domains shown)
VH: QVQLQQSGPELVKPGALVKISCKASGYTFTSYDINWVKQRPGQGLEWIGWIYPGDGSTKYNEKFKGKATLTADKSSSTAYMQLSSLTSENSAVYFCARGGYRYDEAMDYWGQGTTVTVSS
VL: QIVLTQSPAIMSASPGEKVTMTCSASSSISYMHWYQQKPGTSPKRWIYDTSKLASGVPARFSGSGSGTSYSLTISSMEAEDAATYYCHQRSSYPYTFGGGTKLEIKR
As to B1, the “binding to human CLD18A2” value with human CLD18A2 [1] is recorded as “specifically bound to human CLD18A2”.

B2: 4A11: murine anti-CLD18A2 monoclonal antibody, VH SEQ ID NO:11, VL SEQ ID NO:9 (antibody, V domains shown)
VH: QIQLVQSGPELKKPGETVKISCKASGYTFTNYGMNWVKQAPGKGLKWMGWINTNTGEPTYAEEFKGRFAFSLETSASTAYLQINNLKNEDTATYFCARFSYGNSFAYWGQGTTVTVSS
VL: DIVMTQSPSSLSVSAGEKVTMSCKSSQSLLNSGNQKNYLAWYQQKPGQPPKLLIYGASTRESGVPDRFTGSGSGTDFTLTISSVQAEDLAVYYCQNDHSYPLTFGAGTKLELKR
Regarding B2, in the test with human CLD18A2 [1], the “binding to human CLD18A2” value is given as “specifically bound to human CLD18A2”.

B3: 8E5: murine anti-CLD18A2 monoclonal antibody, VH SEQ ID NO:15, VL SEQ ID NO:13 (antibody, V domains shown)
VH: DVQLQESGPDLVKPSQSLSLTCTVTGYSITSGYNWHWIRQFPGNKMEWMGYIHYTGSTNYNPSLRSRISITRDTSKNQFFLQLNSVTTDDTATYYCTRIYNGNSFPYWGQGTSVTVSS
VL: DIVMTQSPSSLTVTPGEKVTMTCKSSQSLFNSGNQKNYLTWYQQRPGQPPKMLIYWASTRESGVPDRFTGSGSGTDFTLTISSVQAEDLAVFYCQNAYSFPYTFGGGTKLEIKR
As usually defined, the EC50 is the concentration at which the effect is half-maximal. With B3, the “binding to human CLD18A2” value in the test with human CLD18A2 [1] is on record as “specifically bound to human CLD18A2”. Also, in the test with human CLD18A2 [2], the EC50 was 49.2 nM.
